Data on 41 variants can be found in the Human Domainome abundance scans (Beltran et al. 2025).

± gives the uncertainty stated by the source.

Sequences and labels used below:
B1: Calcium-binding protein 2, residues 155 to 219; numbered along this chain, Q9NPB3 (parent)
chain: RELRDAFREFDTNGDGRISVGELRAALKALLGERLSQREVDEILQDVDLNGDGLVDFEEFVRMMS

This data set covers variants of B1. Briefly: abundance fitness (aPCA) (normalised: wild type 0, dead -1); higher = more abundant; growth selection in yeast, the domain comes from the species named. To be noted: Homo sapiens.
On to RELRDAFREFDTNGDGRISVGELRAALKALLGERLSQREVDEILQDVDLNGDGLVSFEEFVRMMS [D56S], for which the abundance fitness is 0.078 ± 0.082. As for RELRDAFREFDTNGDGRISVGELRAALKALLGERLSQREVDEILQDVDLNGDGLVFFEEFVRMMS [D56F], the abundance fitness was -0.862 ± 0.26. Take RELRDAFREFDTNGDGRISVGELRAALKALLGERLSQREVDEILQDVDLNGDGLVNFEEFVRMMS [D56N]: the abundance fitness was -0.022 ± 0.16.

Turning to RELRDAFREFDTNGDGRISVGELRAALKALLGERLSQREVDEILQDVDLNGDGLVLFEEFVRMMS [D56L], the abundance fitness is -0.201 ± 0.088. Consider RELRDAFREFDTNGDGRISVGELRAALKALLGERLSQREVDEILQDVDLNGDGLVAFEEFVRMMS [D56A], for which the abundance fitness worked out at 0.002 ± 0.082. In the case of RELRDAFREFDTNGDGRISVGELRAALKALLGERLSQREVDEILQDVDLNGDGLVVFEEFVRMMS [D56V] it was 0.044 ± 0.077. For the variant RELRDAFREFDTNGDGRISVGELRAALKALLGERLSQREVDEILQDVDLNGDGLVCFEEFVRMMS [D56C], the abundance fitness was -0.321 ± 0.15. On to RELRDAFREFDTNGDGRISVGELRAALKALLGERLSQREVDEILQDVDLNGDGLVIFEEFVRMMS [D56I], for which the abundance fitness is -0.12 ± 0.099. Turning to RELRDAFREFDTNGDGRISVGELRAALKALLGERLSQREVDEILQDVDLNGDGLVTFEEFVRMMS [D56T], the abundance fitness worked out at 0.019 ± 0.069. In the case of RELRDAFREFDTNGDGRISVGELRAALKALLGERLSQREVDEILQDVDLNGDGLVPFEEFVRMMS [D56P], the abundance fitness is 0.009 ± 0.092. For RELRDAFREFDTNGDGRISVGELRAALKALLGERLSQREVDEILQDVDLNGDGLVEFEEFVRMMS [D56E] the value was 0.12 ± 0.095; for RELRDAFREFDTNGDGRISVGELRAALKALLGERLSQREVDEILQDVDLNGDGLVWFEEFVRMMS [D56W], -0.531 ± 0.089; for RELRDAFREFDTNGDGRISVGELRAALKALLGERLSQREVDEILQDVDLNGDGLVGFEEFVRMMS [D56G], -0.031 ± 0.041. As to RELRDAFREFDTNGDGRISVGELRAALKALLGERLSQREVDEILQDVDLNGDGLVHFEEFVRMMS [D56H], the abundance fitness was -0.015 ± 0.14.

Consider RELRDAFREFDTNGDGRISVGELRAALKALLGERLSQREVDEILQDVDLNGDGLVMFEEFVRMMS [D56M], for which the abundance fitness was -0.262 ± 0.18. Take RELRDAFREFDTNGDGRISVGELRAALKALLGERLSQREVDEILQDVDLNGDGLVKFEEFVRMMS [D56K]: the abundance fitness is -0.103 ± 0.067. For the variant RELRDAFREFDTNGDGRISVGELRAALKALLGERLSQREVDEILQDVDLNGDGLVRFEEFVRMMS [D56R], the abundance fitness was -0.088 ± 0.052. For the variant RELRDAFREFDTNGDGRISVGELRAALKALLGERLSQREVDEILQDVDLNGDGLVYFEEFVRMMS [D56Y], the abundance fitness was -0.198 ± 0.19. For RELRDAFREFDTNGDGRISVGELRAALKALLGERLSQREVDEILQDVDLNGDGLVQFEEFVRMMS [D56Q] the value was -0.153 ± 0.086; for RELRDAFREFDTNGDGRISVGELRAALKALLGERLSQREVDEILQDVDLNGDGAVDFEEFVRMMS [L54A], -0.211 ± 0.057. RELRDAFREFDTNGDGRISVGELRAALKALLGERLSQREVDEILQDVDLNGDGVVDFEEFVRMMS [L54V]: the abundance fitness was -0.241 ± 0.047. As for RELRDAFREFDTNGDGRISVGELRAALKALLGERLSQREVDEILQDVDLNGDGCVDFEEFVRMMS [L54C], the abundance fitness is -0.21 ± 0.14. Regarding RELRDAFREFDTNGDGRISVGELRAALKALLGERLSQREVDEILQDVDLNGDGPVDFEEFVRMMS [L54P], the abundance fitness is -0.291 ± 0.063. As to RELRDAFREFDTNGDGRISVGELRAALKALLGERLSQREVDEILQDVDLNGDGYVDFEEFVRMMS [L54Y], the abundance fitness was -0.177 ± 0.12. With RELRDAFREFDTNGDGRISVGELRAALKALLGERLSQREVDEILQDVDLNGDGFVDFEEFVRMMS [L54F], the abundance fitness was -0.212 ± 0.11. In the case of RELRDAFREFDTNGDGRISVGELRAALKALLGERLSQREVDEILQDVDLNGDGGVDFEEFVRMMS [L54G], the abundance fitness stood at 0.099 ± 0.053. On to RELRDAFREFDTNGDGRISVGELRAALKALLGERLSQREVDEILQDVDLNGDGQVDFEEFVRMMS [L54Q], for which the abundance fitness is -0.088 ± 0.11. For RELRDAFREFDTNGDGRISVGELRAALKALLGERLSQREVDEILQDVDLNGDGEVDFEEFVRMMS [L54E] the value was -0.07 ± 0.056. As for RELRDAFREFDTNGDGRISVGELRAALKALLGERLSQREVDEILQDVDLNGDGWVDFEEFVRMMS [L54W], the abundance fitness is -0.346 ± 0.043. For the variant RELRDAFREFDTNGDGRISVGELRAALKALLGERLSQREVDEILQDVDLNGDGKVDFEEFVRMMS [L54K], the abundance fitness was -0.207 ± 0.19. For RELRDAFREFDTNGDGRISVGELRAALKALLGERLSQREVDEILQDVDLNGDGDVDFEEFVRMMS [L54D], the abundance fitness was -0.208 ± 0.14. Take RELRDAFREFDTNGDGRISVGELRAALKALLGERLSQREVDEILQDVDLNGDGTVDFEEFVRMMS [L54T]: the abundance fitness stood at 0.012 ± 0.096. With RELRDAFREFDTNGDGRISVGELRAALKALLGERLSQREVDEILQDVDLNGDGHVDFEEFVRMMS [L54H], the abundance fitness is -0.292 ± 0.31. For RELRDAFREFDTNGDGRISVGELRAALKALLGERLSQREVDEILQDVDLNGDGIVDFEEFVRMMS [L54I], the abundance fitness is -0.223 ± 0.2.

Turning to RELRDAFREFDTNGDGRISVGELRAALKALLGERLSQREVDEILQDVDLNGDGRVDFEEFVRMMS [L54R], the abundance fitness was -0.283 ± 0.046.

Consider RELRDAFREFDTNGDGRISVGELRAALKALLGERLSQREVDEILQDVDLNGDPLVDFEEFVRMMS [G53P], for which the abundance fitness is -0.188 ± 0.085. In the case of RELRDAFREFDTNGDGRISVGELRAALKALLGERLSQREVDEILQDVDLNGDTLVDFEEFVRMMS [G53T], the abundance fitness is -0.107 ± 0.11. Turning to RELRDAFREFDTNGDGRISVGELRAALKALLGERLSQREVDEILQDVDLNGDILVDFEEFVRMMS [G53I], the abundance fitness is -0.147 ± 0.12. For the variant RELRDAFREFDTNGDGRISVGELRAALKALLGERLSQREVDEILQDVDLNGDLLVDFEEFVRMMS [G53L], the abundance fitness was -0.23 ± 0.067.

In the case of RELRDAFREFDTNGDGRISVGELRAALKALLGERLSQREVDEILQDVDLNGDHLVDFEEFVRMMS [G53H], the abundance fitness was 0.011 ± 0.11. RELRDAFREFDTNGDGRISVGELRAALKALLGERLSQREVDEILQDVDLNGDWLVDFEEFVRMMS [G53W]: the abundance fitness is -0.361 ± 0.069.
